From patent US20240409658A1 (Seagen, published 2024)
Positions count from the first letter of the chain named. Numbers in names are those of the source. Read-outs that look alike come from different tables or passages of the source.

Experiments:
[1] = target: human CD228 (R&D Systems Custom02; Lot DCWR021505A) (human) (UniProt P08582); experiment: ELISA on plate-coated human CD228, pH 5.6
[2] = target: human CD228 (R&D Systems Custom02; Lot DCWR021505A) (human) (UniProt P08582); experiment: ELISA on plate-coated human CD228, pH 5.1
[3] = target: human CD228 (R&D Systems Custom02; Lot DCWR021505A) (human) (UniProt P08582); experiment: ELISA on plate-coated human CD228, pH 7.1
[4] = target: human CD228 (R&D Systems Custom02; Lot DCWR021505A) (human) (UniProt P08582); experiment: ELISA on plate-coated human CD228, pH 5.9
[5] = target: human CD228 (R&D Systems Custom02; Lot DCWR021505A) (human) (UniProt P08582); experiment: ELISA on plate-coated human CD228, pH 4.55
[6] = target: human CD228 (R&D Systems Custom02; Lot DCWR021505A) (human) (UniProt P08582); experiment: ELISA on plate-coated human CD228, pH 7.4
[7] = target: human CD228 (R&D Systems Custom02; Lot DCWR021505A) (human) (UniProt P08582); experiment: ELISA on plate-coated human CD228, pH 4
[8] = target: human CD228 (R&D Systems Custom02; Lot DCWR021505A) (human) (UniProt P08582); experiment: ELISA on plate-coated human CD228, pH 6.3
[9] = target: human CD228 (R&D Systems Custom02; Lot DCWR021505A) (human) (UniProt P08582); experiment: ELISA on plate-coated human CD228, pH 7.5
[10] = target: human CD228 (R&D Systems Custom02; Lot DCWR021505A) (human) (UniProt P08582); experiment: ELISA on plate-coated human CD228, pH 6.66
[11] = target: T1, human CD228 on the cell surface (RPMI-7951 cells stably expressing human CD228; A375 cells) (human, UniProt P08582 20-709); experiment: competition flow cytometry, RPMI-7951 cells stably expressing human CD228; competitor 5 nM AF647-labeled mL49; unlabeled antibody 0.06-1000 nM
T1 construct: whole, on cells; also called p97; melanotransferrin
T1 sequence (looked up): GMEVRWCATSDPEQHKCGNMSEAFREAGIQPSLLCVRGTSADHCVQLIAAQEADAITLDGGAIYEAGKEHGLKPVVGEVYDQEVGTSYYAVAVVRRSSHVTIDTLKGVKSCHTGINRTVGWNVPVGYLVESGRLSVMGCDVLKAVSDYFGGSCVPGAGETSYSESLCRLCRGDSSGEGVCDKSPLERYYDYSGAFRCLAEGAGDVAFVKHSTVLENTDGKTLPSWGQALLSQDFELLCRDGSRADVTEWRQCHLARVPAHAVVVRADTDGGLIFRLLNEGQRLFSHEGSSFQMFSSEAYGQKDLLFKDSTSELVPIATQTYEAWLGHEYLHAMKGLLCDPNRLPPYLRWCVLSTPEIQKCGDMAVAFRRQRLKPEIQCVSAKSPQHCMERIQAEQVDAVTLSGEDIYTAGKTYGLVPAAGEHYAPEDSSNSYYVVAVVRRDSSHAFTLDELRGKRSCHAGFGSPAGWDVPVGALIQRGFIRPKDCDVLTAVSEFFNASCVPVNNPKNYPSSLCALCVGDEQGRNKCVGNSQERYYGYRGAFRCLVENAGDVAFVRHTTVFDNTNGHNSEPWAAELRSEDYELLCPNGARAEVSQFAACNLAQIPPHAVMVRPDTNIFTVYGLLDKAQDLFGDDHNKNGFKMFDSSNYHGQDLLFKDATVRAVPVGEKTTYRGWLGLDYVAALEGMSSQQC
Protocol: (§1) Binding curves for each resulting antibody was determined by a competition binding assay. Briefly, 1×10⁵ RPMI-7951 cells stably expressing human CD228 were aliquoted per well of a 96-well v-bottom plates on ice. […] Cells were pelleted and washed 3 times with PBS/BSA. The cells were pelleted and resuspended in 125 μL of PBS/BSA. Fluorescence was analyzed by flow cytometry, using percent of saturated fluorescent signal to determine percent labeled murine CD228 mAb bound.

[12] = target: T1, human CD228 on the cell surface …; experiment: as above; remark: listed apart in the source
Protocol: as §1

[13] = target: T1, human CD228 on the cell surface …; experiment: as above; remark: listed apart in the source
Protocol: as §1

[14] = target: T1, human CD228 on the cell surface …; experiment: as above; remark: listed apart in the source
Protocol: as §1

[15] = target: T1, human CD228 on the cell surface …; experiment: as above; remark: listed apart in the source
Protocol: as §1

[16] = target: T1, human CD228 on the cell surface …; experiment: as above; remark: listed apart in the source
Protocol: as §1

[17] = target: T1, human CD228 on the cell surface …; experiment: saturation binding by flow cytometry, RPMI-7951 cells stably expressing human CD228; PE anti-human IgG secondary; row 'ug/mL' of the drawn table headed 'kD'
Protocol: (§2) The KD for each resulting antibody was then determined by a saturation binding assay. Briefly, 1×10⁵ RPMI-7951 cells stably expressing human CD228 were aliquoted per well of a 96-well v-bottom plates. Each CD228 antibody was added in concentrations ranging from 0.05 pM to 340 nM and incubated on ice for 60 minutes. Cells were pelleted and washed 3× with PBS/BSA followed by addition of 10 ug/ml of a PE labeled anti-human IgG goat secondary antibody and incubated on ice for an additional 60 minutes. Cells were pelleted and washed 3× with PBS/BSA and resuspended in 125 μL of PBS/BSA. Fluorescence was analyzed by flow cytometry, using percent of saturated fluorescent signal to determine percent bound and to subsequently calculate apparent KD. The binding curves for recombinant human anti-CD228 antibodies are shown in FIG. 13 and the KD for cL49ec (chimeric LA9 with an S239C mutation in the […] constant region), hL49 HALA G1, hL49 HALB G1, and hL49 HALC G1 are shown in Table 8. The antibody called “HALC,” “hL49,” or “hL49-HALC” which comprises heavy chain “HA” and the light chain “LC” was selected for use in all other experiments.

[18] = target: T1, human CD228 on the cell surface …; experiment: saturation binding by flow cytometry on RPMI-7951 cells stably expressing human CD228; apparent KD
Protocol: as §2

[19] = target: T2, human CD228 on the cell surface (RPMI-7951 cells stably expressing human CD228; A375 cells) (human) (UniProt P08582); experiment: competition flow cytometry, RPMI-7951 cells stably expressing human CD228; competitor 5 nM AF647-labeled mL49; unlabeled antibody 0.06-1000 nM
T2 sequence (looked up): T1 sequence (looked up)

## cL235 (antibody)
[1]
  EC50: 0.74 nM
[2]
  EC50: 0.756 nM
[3]
  EC50: 0.724 nM
[4]
  EC50: 0.838 nM
[5]
  EC50: 0.727 nM
[6]
  EC50: 0.767 nM
[7]
  EC50: 0.809 nM
[8]
  EC50: 0.749 nM
[9]
  EC50: 0.694 nM
[10]
  EC50: 0.757 nM

B1: mouse antibody L49 (mL49), AlexaFluor-647 labeled parental murine CD228 mAb (antibody, mouse IgG1, V domains shown)
VH: EVQLQESGPSLVKPSQTLSLTCSVTGDSITSGYWNWIRKFPGNKLEYMGYISDSGITYYNPSLKSRISITRDTSKNQYYLQLNFVTAEDTATYNCARRTLATYYAMDYWGQGTSVTVSS
VL: DFVMTQTPLSLPVSLGDQASISCRASQSLVHSNGNTYLHWYLQKPGQSPKLLIYRVSNRFSGVPDRFSGSGSGTDFTLKISRVEAEDLGVYFCSQSTHVPPTFGGGTKLEIK
notes: also called Mu L49
[11]
  IC50 (read off the curve): 10 to 20 nM
[12]
  IC50 (read off the curve): 10 to 20 nM
[13]
  IC50 (read off the curve): 10 to 20 nM
[14]
  IC50 (read off the curve): 10 to 20 nM
[15]
  IC50 (read off the curve): 10 to 20 nM
[16]
  IC50 (read off the curve): 10 to 20 nM

B2: cL49ec (chimeric L49 with an S239C mutation) (antibody, V domains shown)
VH: B1 VH
VL: B1 VL
notes: Human constant regions with S239C; also called chimeric LA9
[11]
  IC50 (read off the curve): ~30 nM
[17]
  Kd: 0.9 µg/mL
[12]
  IC50 (read off the curve): ~30 nM
[13]
  IC50 (read off the curve): ~30 nM
[16]
  IC50 (read off the curve): ~30 nM
[18]
  Kd: 5.8 nM

B3: hL49ec HCLA (antibody, V domains shown)
VH: QVQLQESGPGLVKPSETLSLTCTVSGDSITSGYWNWIRQFPGKGLEYMGYISDSGITYYNPSLKSRITISRDTSKNQYSLKLSFVTAADTAVYNCARRTLATYYAMDYWGQGTLVTVSS
VL: DFVMTQSPLSLPVTLGQPASISCRASQSLVHSNGNTYLHWFQQRPGQSPRRLIYRVSNRFSGVPDRFSGSGSGTDFTLKISRVEAEDVGVYYCSQSTHVPPTFGQGTKLEIK
[19]
  IC50 (read off the curve): 60 nM

B4: hL49ec HALA (antibody, V domains shown)
VH: B3 VH with F40P, M48I, I67V, F84S, N94Y
VL: B3 VL
notes: Same variable regions as m5 (hL49 HALA G1); The sheet prints 'ec', so it is kept apart from the G1 form; also called HALA in the 'ec' format
[11]
  IC50 (read off the curve): ~40 nM
[16]
  IC50 (read off the curve): ~40 nM

B5: hL49ec HCLB (antibody, V domains shown)
VH: B3 VH
VL: B3 VL with F41Y, R51L
[19]
  IC50 (read off the curve): 20 nM

B6: hL49ec HBLA (antibody, V domains shown)
VH: B3 VH with F84S, N94Y
VL: B3 VL
[19]
  IC50 (read off the curve): 40 nM

B7: hL49ec HBLB (antibody, V domains shown)
VH: B3 VH with F84S, N94Y
VL: B3 VL with F41Y, R51L
[19]
  IC50 (read off the curve): 30 nM

B8: hL49 HALA G1 (antibody, V domains shown)
VH: B3 VH with F40P, M48I, I67V, F84S, N94Y
VL: B3 VL
notes: Humanized L49 with heavy chain HA and light chain LA; 'G1' (IgG1)
[17]
  Kd: 0.8 µg/mL
[18]
  Kd: 5.3 nM

B9: hL49ec HALB (antibody, V domains shown)
VH: B3 VH with F40P, M48I, I67V, F84S, N94Y
VL: B3 VL with F41Y, R51L
notes: Same variable regions as m6 (hL49 HALB G1); The sheet prints 'ec', so it is kept apart from the G1 form; also called HALB in the 'ec' format
[16]
  IC50 (read off the curve): 20 to 30 nM

B10: hL49 HALB G1 (antibody, V domains shown)
VH: B3 VH with F40P, M48I, I67V, F84S, N94Y
VL: B3 VL with F41Y, R51L
notes: Humanized L49 with heavy chain HA and light chain LB; 'G1' (IgG1)
[17]
  Kd: 1.2 µg/mL
[18]
  Kd: 7.8 nM
